Reference: EP4039268A1

Columns and labels:
[1] = target: monomeric SARS-CoV-2 receptor binding domain (RBD-H6) (SARS-CoV-2) (UniProt P0DTC2); experiment: ELISA screen
[2] = target: full-length trimeric SARS-CoV-2 Spike protein (Spike-H6) (SARS-CoV-2); experiment: ELISA screen
[3] = target: human recombinant soluble ACE2 (human) (UniProt Q9BYF1); experiment: ELISA screen
[4] = target: full-length trimeric SARS-CoV-2 Spike protein (Spike-H6) (SARS-CoV-2); experiment: SPR, Spike immobilized, bivalent analyte model, first binding step
[5] = target: full-length trimeric SARS-CoV-2 Spike protein (Spike-H6) (SARS-CoV-2); experiment: high-speed AFM, from volumes
[6] = target: full-length trimeric SARS-CoV-2 Spike protein (Spike-H6) (SARS-CoV-2); experiment: AFM single molecule force spectroscopy, Evans model
[7] = target: full-length trimeric SARS-CoV-2 Spike protein (Spike-H6) (SARS-CoV-2); experiment: inhibition of Spike binding to Vero E6 cells, AFM

human recombinant soluble ACE2 (human), sequence (Q9BYF1 18-740 limits assumed): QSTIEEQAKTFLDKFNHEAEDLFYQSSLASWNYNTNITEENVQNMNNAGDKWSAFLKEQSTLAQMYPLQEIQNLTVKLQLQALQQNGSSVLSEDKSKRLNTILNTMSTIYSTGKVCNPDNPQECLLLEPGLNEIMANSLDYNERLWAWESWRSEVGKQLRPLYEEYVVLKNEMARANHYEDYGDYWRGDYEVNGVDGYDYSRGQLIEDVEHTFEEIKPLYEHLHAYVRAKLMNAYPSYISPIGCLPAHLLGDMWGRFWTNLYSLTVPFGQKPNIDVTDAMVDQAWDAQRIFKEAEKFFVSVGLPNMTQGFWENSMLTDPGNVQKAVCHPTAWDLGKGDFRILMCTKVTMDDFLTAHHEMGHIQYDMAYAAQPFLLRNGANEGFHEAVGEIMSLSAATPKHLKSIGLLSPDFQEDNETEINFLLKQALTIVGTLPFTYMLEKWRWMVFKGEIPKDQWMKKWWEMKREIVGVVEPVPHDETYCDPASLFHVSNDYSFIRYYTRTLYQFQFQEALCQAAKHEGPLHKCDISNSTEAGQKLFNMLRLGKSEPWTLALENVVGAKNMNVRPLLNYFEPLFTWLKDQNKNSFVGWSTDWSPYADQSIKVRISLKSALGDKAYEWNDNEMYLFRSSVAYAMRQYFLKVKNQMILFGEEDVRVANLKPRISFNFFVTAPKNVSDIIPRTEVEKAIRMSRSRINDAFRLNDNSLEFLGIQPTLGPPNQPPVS
human CLEC4G-hIgG1 Fc-fusion protein (Fc fusion), sequence (Q6UXB4 53-293, form in doubt): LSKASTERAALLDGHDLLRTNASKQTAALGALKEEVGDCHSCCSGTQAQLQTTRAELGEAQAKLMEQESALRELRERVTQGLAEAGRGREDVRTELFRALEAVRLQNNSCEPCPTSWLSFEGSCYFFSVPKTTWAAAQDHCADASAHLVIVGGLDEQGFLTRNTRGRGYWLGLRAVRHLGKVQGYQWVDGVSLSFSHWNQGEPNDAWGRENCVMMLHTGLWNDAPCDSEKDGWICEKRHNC
Clec4g CRD-mouse IgG2a-Fc fusion protein, sequence (Q8BNX1 other isoform, or with tags, fused parts or gaps limits assumed): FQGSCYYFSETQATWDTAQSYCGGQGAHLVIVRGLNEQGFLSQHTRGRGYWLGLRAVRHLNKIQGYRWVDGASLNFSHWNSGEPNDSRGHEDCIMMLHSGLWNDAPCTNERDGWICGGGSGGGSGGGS
Ly75_5 CRD-mouse IgG2a-Fc fusion protein, sequence (Q60767 other isoform, or with tags, fused parts or gaps limits assumed): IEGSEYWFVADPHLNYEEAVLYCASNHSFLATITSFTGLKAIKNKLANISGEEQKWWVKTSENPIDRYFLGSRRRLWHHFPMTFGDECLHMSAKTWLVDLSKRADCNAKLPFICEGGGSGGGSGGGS
Bcan CRD-mouse IgG2a-Fc fusion protein, sequence (Q61361 other isoform, or with tags, fused parts or gaps limits assumed): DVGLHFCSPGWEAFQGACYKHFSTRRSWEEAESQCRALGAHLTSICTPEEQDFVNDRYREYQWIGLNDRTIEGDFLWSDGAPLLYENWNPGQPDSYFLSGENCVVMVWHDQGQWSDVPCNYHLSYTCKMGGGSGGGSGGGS
Ly75_2 CRD-mouse IgG2a-Fc fusion protein, sequence (Q60767 other isoform, or with tags, fused parts or gaps limits assumed): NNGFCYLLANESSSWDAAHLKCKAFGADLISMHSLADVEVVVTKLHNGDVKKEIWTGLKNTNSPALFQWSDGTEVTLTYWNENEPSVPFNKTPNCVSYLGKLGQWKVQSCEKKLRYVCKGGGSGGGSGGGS
Clec2g CRD-mouse IgG2a-Fc fusion protein, sequence (Q9D676 other isoform, or with tags, fused parts or gaps limits assumed): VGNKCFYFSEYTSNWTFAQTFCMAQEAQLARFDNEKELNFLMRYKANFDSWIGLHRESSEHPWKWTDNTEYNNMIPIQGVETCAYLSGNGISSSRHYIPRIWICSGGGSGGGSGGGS
Lgals6_2 CRD-mouse IgG2a-Fc fusion protein, sequence (O54891 other isoform, or with tags, fused parts or gaps limits assumed): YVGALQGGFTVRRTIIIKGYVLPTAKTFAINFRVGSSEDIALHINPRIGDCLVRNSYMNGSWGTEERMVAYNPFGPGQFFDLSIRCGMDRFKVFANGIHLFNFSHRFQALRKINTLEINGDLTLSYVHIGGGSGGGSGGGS
Clec2i CRD-mouse IgG2a-Fc fusion protein, sequence (Q9WVF9 other isoform, or with tags, fused parts or gaps limits assumed): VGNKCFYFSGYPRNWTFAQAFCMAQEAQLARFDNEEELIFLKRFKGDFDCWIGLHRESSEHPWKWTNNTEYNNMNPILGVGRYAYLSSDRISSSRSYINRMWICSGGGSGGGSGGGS
Clec2h CRD-mouse IgG2a-Fc fusion protein, sequence (Q8C1T8 other isoform, or with tags, fused parts or gaps limits assumed): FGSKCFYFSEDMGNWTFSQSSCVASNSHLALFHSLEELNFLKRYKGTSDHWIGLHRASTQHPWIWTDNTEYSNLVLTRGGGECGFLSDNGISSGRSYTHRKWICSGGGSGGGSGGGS
Lgals4_1 CRD-mouse IgG2a-Fc fusion protein, sequence (Q8K419 other isoform, or with tags, fused parts or gaps limits assumed): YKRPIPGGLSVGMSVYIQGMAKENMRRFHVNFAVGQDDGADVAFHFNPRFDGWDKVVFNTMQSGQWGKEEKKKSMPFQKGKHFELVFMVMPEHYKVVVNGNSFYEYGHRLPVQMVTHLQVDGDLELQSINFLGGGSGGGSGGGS
Ly75_1 CRD-mouse IgG2a-Fc fusion protein, sequence (Q60767 other isoform, or with tags, fused parts or gaps limits assumed): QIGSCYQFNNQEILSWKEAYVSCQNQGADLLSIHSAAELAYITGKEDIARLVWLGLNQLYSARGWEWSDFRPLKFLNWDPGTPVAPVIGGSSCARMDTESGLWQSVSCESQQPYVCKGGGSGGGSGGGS
Olr1 CRD-mouse IgG2a-Fc fusion protein, sequence (Q9EQ09 other isoform, or with tags, fused parts or gaps limits assumed): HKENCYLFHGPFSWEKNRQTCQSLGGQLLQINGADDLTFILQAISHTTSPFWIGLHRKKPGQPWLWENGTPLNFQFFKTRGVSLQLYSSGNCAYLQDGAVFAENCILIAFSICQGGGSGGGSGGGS
Asgr1 CRD-mouse IgG2a-Fc fusion protein, sequence (P34927 other isoform, or with tags, fused parts or gaps limits assumed): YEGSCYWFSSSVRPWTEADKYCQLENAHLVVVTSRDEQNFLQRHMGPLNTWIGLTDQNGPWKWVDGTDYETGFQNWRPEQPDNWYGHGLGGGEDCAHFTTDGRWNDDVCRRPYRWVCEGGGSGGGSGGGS
Ncan CRD-mouse IgG2a-Fc fusion protein, sequence (P55066 other isoform, or with tags, fused parts or gaps limits assumed): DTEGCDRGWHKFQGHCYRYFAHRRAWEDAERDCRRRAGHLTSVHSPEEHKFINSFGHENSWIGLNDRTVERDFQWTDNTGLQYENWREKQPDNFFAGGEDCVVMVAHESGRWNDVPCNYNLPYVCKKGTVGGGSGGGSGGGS

Substance	Mean normalized OD [1] [OD]	Mean normalized OD [2] [OD]	Mean normalized OD [3] [OD]	also measured
Asgr1 CRD-mouse IgG2a-Fc fusion protein (from UniProt P34927 160-277)	0.697	–	–	–
Bcan CRD-mouse IgG2a-Fc fusion protein (from UniProt Q61361 658-786)	0.101	–	–	–
Cd33 CRD-mouse IgG2a-Fc fusion protein (from UniProt Q63994 17-120)	0.009	0.023	0.216	–
Cd93 CRD-mouse IgG2a-Fc fusion protein (from UniProt O89103 31-173)	-0.005	0	-0.163	–
Cd209f CRD-mouse IgG2a-Fc fusion protein	0.015	0.018	0.182	–
Clec2f CRD-mouse IgG2a-Fc fusion protein	0.045	-0.02	-0.261	–
Clec2g CRD-mouse IgG2a-Fc fusion protein (from UniProt Q9D676 150-254)	0.421	–	–	–
Clec2h CRD-mouse IgG2a-Fc fusion protein (from UniProt Q8C1T8 97-201)	0.237	–	–	–
Clec2i CRD-mouse IgG2a-Fc fusion protein (from UniProt Q9WVF9 99-203)	0.178	–	–	–
Clec2j CRD-mouse IgG2a-Fc fusion protein	0.005	0.006	0.059	–
Clec4a1 CRD-mouse IgG2a-Fc fusion protein	0.024	0.014	-0.004	–
Clec4a3 CRD-mouse IgG2a-Fc fusion protein	0.002	0.002	0.001	–
Clec4a4 CRD-mouse IgG2a-Fc fusion protein	0.007	0.004	-0.009	–
Clec4a CRD-mouse IgG2a-Fc fusion protein (from UniProt Q9QZ15 126-233)	0.036	0.014	0.062	–
Clec4b1 CRD-mouse IgG2a-Fc fusion protein	0.023	0.013	0.001	–
Clec4b2 CRD-mouse IgG2a-Fc fusion protein	0.003	-0.013	0.008	–
Clec4f CRD-mouse IgG2a-Fc fusion protein (from UniProt P70194 438-538)	0.362	-0.146	0.194	–
Clec4g CRD-mouse IgG2a-Fc fusion protein (from UniProt Q8BNX1 172-287)	0.451	–	–	–
Colec12 CRD-mouse IgG2a-Fc fusion protein (from UniProt Q8K4Q8 614-731)	–	–	0.317	–
Fcer2a CRD-mouse IgG2a-Fc fusion protein (from UniProt P20693 185-298)	0	0.007	-0.004	–
Gm156 CRD-mouse IgG2a-Fc fusion protein	0.048	0.074	0.009	–
IgG2a	0	0.001	-0.003	–
Klrb1b_1 CRD-mouse IgG2a-Fc fusion protein	0.002	0.001	0.003	–

Substance	Mean normalized OD [1] [OD]	Mean normalized OD [2] [OD]	Mean normalized OD [3] [OD]	also measured
Klrc1 CRD-mouse IgG2a-Fc fusion protein	0.01	0.006	0.039	–
Klrc2 CRD-mouse IgG2a-Fc fusion protein	0.035	0.025	0.104	–
Klrc3 CRD-mouse IgG2a-Fc fusion protein	0.061	-0.007	0.086	–
Lgals4_1 CRD-mouse IgG2a-Fc fusion protein (from UniProt Q8K419 19-150)	0.143	–	–	–
Lgals6_2 CRD-mouse IgG2a-Fc fusion protein (from UniProt O54891 173-301)	0.073	–	0.528	–
Lgals9_2 CRD-mouse IgG2a-Fc fusion protein (from UniProt O08573 225-353)	–	–	0.367	–
Ly75_1 CRD-mouse IgG2a-Fc fusion protein (from UniProt Q60767 225-341)	0.29	–	–	–
Ly75_2 CRD-mouse IgG2a-Fc fusion protein (from UniProt Q60767 368-486)	-0.206	–	–	–
Ly75_5 CRD-mouse IgG2a-Fc fusion protein (from UniProt Q60767 818-932)	0.14	–	–	–
Mag CRD-mouse IgG2a-Fc fusion protein (from UniProt P20917 22-120)	0.004	0.008	0.032	–
Mbl1 CRD-mouse IgG2a-Fc fusion protein (from UniProt P39039 144-239)	0.019	0.043	0.098	–
Mgl2 CRD-mouse IgG2a-Fc fusion protein	1.31	0.598	0.145	–
Ncan CRD-mouse IgG2a-Fc fusion protein (from UniProt P55066 1036-1165)	0.279	–	–	–
Olr1 CRD-mouse IgG2a-Fc fusion protein (from UniProt Q9EQ09 242-355)	0.379	–	–	–
Prg2 CRD-mouse IgG2a-Fc fusion protein	0.001	0.009	-0.014	–
Prg3 CRD-mouse IgG2a-Fc fusion protein	-0.057	-0.271	-0.298	–
Reg3d CRD-mouse IgG2a-Fc fusion protein	0.019	0.019	0.152	–
Siglec5 CRD-mouse IgG2a-Fc fusion protein	0.019	0.041	0.146	–
Siglec10 CRD-mouse IgG2a-Fc fusion protein (from UniProt Q80ZE3 26-138)	–	–	0.299	–
Siglech CRD-mouse IgG2a-Fc fusion protein	0	0.003	-0.003	–
Vcan CRD-mouse IgG2a-Fc fusion protein (from UniProt Q62059 3138-3252)	–	–	0.332	–
human CD209-hIgG1 Fc-fusion protein (from UniProt Q9NNX6 62-404) (Fc fusion)	–	–	–	Kd [4]: 2390 nM; koff [4]: 0.0316 s⁻¹; kon [4]: 13200 M⁻¹ s⁻¹; molecules bound per trimeric Spike (average) (molecules per trimeric Spike) [5]: 3.6; koff [6]: 0.008 s⁻¹; xβ (length of dissociation path) [6]: 0.73 nm
human CLEC4G-hIgG1 Fc-fusion protein (Fc fusion)	–	–	–	Kd [4]: 259 nM; koff [4]: 0.0201 s⁻¹; kon [4]: 77700 M⁻¹ s⁻¹; Ki [7]: 35 to 70 nM; molecules bound per trimeric Spike (average) (molecules per trimeric Spike) [5]: 3.5; koff [6]: 0.007 s⁻¹; xβ (length of dissociation path) [6]: 0.64 nm
